Measured values: publication PMC9527319, “^99mTc-labeled iRGD for single-positron emission computed tomography imaging of triple-negative breast cancer” (Frontiers in Bioengineering and Biotechnology, 2022)
Where two headings read alike, the source gives them in different places. Bridge positions count the residues as written; N and C are the ends. Peptide text beside a SMILES is read from it. * marks the point of attachment. HYNIC = NNc1ccc(C(=O)*)cn1

Experiments:
4T1 tumor-bearing mice [1] = assay: Biodistribution (gamma-counter, %ID/g); type: in vivo
Description: The radioactivity counts of all samples were measured using a γ-counter (CAPINTEC, United States) and expressed as counts per minute after correction for decay. The results are shown as the percentage of injection dose/gram (%ID/g) of wet tissue for each time point in each group.

[2] = In vitro stability of 99mTc-labeled peptides in FBS (RCP by TLC); type: in vitro ADME, bovine; conditions: FBS at 37°C, within 6 h, RCP by TLC (silica gel 60 F254, 50% acetonitrile)
Description: (§1) HYNIC-iRGD, HYNIC-iRGE, and HYNIC-CG7C were labeled with ^99mTc according to previously published procedures in the literature ([Bohn et al., 2013]; [Xu et al., 2017]; [Gong et al., 2022]). In brief, a mixture of 50 μl HYNIC-modified peptide (1 mg/ml in water), 0.5 ml EDDA solution (20 mg/ml in 0.1 M NaOH), 0.5 ml tricine solution (40 mg/ml in 0.2 M PBS, pH = 6.0), 1 ml Na^99mTcO4 solution (50 mCi/ml), and 50 μl SnCl2 solution (1 mg/ml in 0.1 M HCl) were heated at 100°C for 15 min. After cooling to room temperature, the mixture was analyzed using instant thin-layer chromatography (TLC) and radio-high-performance liquid chromatography (radio-HPLC). The ^99mTc-labeled peptides were characterized using an Agilent 1260 HPLC system (Agilent Technologies, United States) equipped with a UV-vis detector (λ = 220 nm) and a radioactive flow detector (BioScan, United States). A SunFire C18 column (5 μm, 4.6 × 250 mm, Waters, Japan) was used at a flow rate of 1 ml/min with the following gradient method: 0.1% Trifluoroacetic acid in H2O and CH3CN (0–20 min, 10%–35% CH3CN) for iRGD and iRGE, and 0.1% trifluoroacetic acid in H2O and CH3CN (0–20 min, 25%–60% CH3CN) for CG7C. Their RCPs were determined by radio-HPLC and rapidly analyzed by TLC in a system consisting of silica gel 60 F254 TLC plates (Merck, Germany) and 50% acetonitrile as mobile phase. […]

[3] = Pharmacokinetics (blood radioactivity-time curve); type: in vivo; conditions: healthy ICR mice; for clear-phase half-life t1/2(β) / distribution phase half-life t1/2(α): i.v., blood, two-compartment model (DAS 2.0); for tissue uptake at 1 min / tissue uptake at 0.5 h / tissue uptake at 3 h: mouse, whole blood, iv, 20 uCi, total radioactivity, i.v. 20 μCi in 200 μl PBS, γ-counter, read-out: radioactivity level in blood; for tissue uptake at 1 min / tissue uptake at 0.5 h: mean ± SD; for tissue uptake at 0.5 h: 30 min; for tissue uptake at 3 h: 180 min
Description: The pharmacokinetic profiles of ^99mTc-HYNIC-iRGD and ^99mTc-HYNIC-iRGE were evaluated in healthy ICR mice. Each mouse was intravenously injected with ^99mTc-HYNIC-iRGD or ^99mTc-HYNIC-iRGE at a dose of 20 μCi in 200 μl PBS solution. Blood samples ([…]) from each mouse were immediately collected and weighed at designated times (1, 2, 5, 15, 30, 60, 120, and 180 min), and the radioactivity was measured using a γ-counter to calculate the %ID/g. Moreover, the pharmacokinetic data were analyzed by DAS 2.0 (Shanghai, China) using a two-compartment model to calculate the half-lives of ^99mTc-HYNIC-iRGD and ^99mTc-HYNIC-iRGE in blood.

[4] = In vitro stability of 99mTc-labeled peptides in PBS and cysteine solution (RCP by TLC); type: physicochemical; conditions: PBS (0.1 M, pH = 7.4) and cysteine solution (100-fold molar excess over the peptides), room temperature, within 6 h, RCP by TLC (silica gel 60 F254, 50% acetonitrile)
Description: as §1

4T1 tumor-bearing mice [5] = conditions: for course of SPECT signal in tumor with time: i.v. tail vein, 0.5, 1, 2 and 4 h post-injection; for tumor accumulation (SPECT): i.v. tail vein, 0.5 h post-injection
Description: Murine breast cancer cells 4T1 were purchased from Procell Life Science and Technology Co., Ltd. (Wuhan, China) and maintained in RPMI-1640 supplemented with 10% FBS. Four-week-old female BALB/c nude mice (18–20 g) and healthy ICR mice (20–22 g) were purchased from Shanghai Laboratory Animal Center of the Chinese Academy of Sciences (Shanghai, China). To establish breast cancer models, four-week-old female BALB/c nude mice were subcutaneously injected in their right-side flanks with 5 × 10^6 4T1 cells suspended in 100 μl of PBS. When the tumor diameter reached 0.8–1.2 cm, the mice were used for animal experiments. All animal experiments were repeated three times and performed according to the protocols established by the Ethics Committee of Shanghai General Hospital.
The 4T1 tumor-bearing mice were randomly divided into three groups (three mice per group). After anesthetization with pentobarbital sodium (40 mg/kg), 200 μl of ^99mTc-HYNIC-iRGD, ^99mTc-HYNIC-iRGE, or ^99mTc-HYNIC-CG7C ([^99mTc] = 10 mCi/ml) was injected via the tail vein. SPECT images were acquired at 0.5, 1, 2, and 4 h post-injection using a SPECT imaging system equipped with a Xeleris 2.0 workstation and low-energy general-purpose collimators (Infinia, Denver, CO, United States).

[6] = i.v. 20 μCi, 4 h post-injection

| Structure (SMILES) | tumor-to-muscle (T/M) ratio (4T1 tumor-bearing mice [1]; i.v. 20 μCi, 0.5, 1, 2 and 4 h post-injection) | tumor-to-kidney (T/K) ratio (4T1 tumor-bearing mice [1]; i.v. 20 μCi, 0.5–4 h post-injection) | tumor-to-blood (T/B) ratio (4T1 tumor-bearing mice [1]; [6]) | tumor-to-lung (T/Lu) ratio (4T1 tumor-bearing mice [1]; [6]) | changes in RCPs (stability in vitro) [2] | clear-phase half-life t1/2(β) [3] [min] | distribution phase half-life t1/2(α) [3] [min] | tissue uptake at 1 min [3] [%ID/g] | tissue uptake at 0.5 h [3] [%ID/g] | tissue uptake at 3 h [3] [%ID/g] | changes in RCPs (stability in vitro) [4] | course of SPECT signal in tumor with time (4T1 tumor-bearing mice [5]; 4T1 tumor-bearing nude mice) | tumor accumulation (SPECT) (4T1 tumor-bearing mice [5]; 4T1 tumor-bearing nude mice) | radioactivity in bladder and kidneys (SPECT; clearance through the urinary system) (4T1 tumor-bearing mice [5]; 4T1 tumor-bearing nude mice, i.v., each time point 0.5–4 h) | radioactivity in bladder and kidneys (SPECT; clearance through the urinary system) (4T1 tumor-bearing mice [5]; mouse, in vivo, iv) |
| --- | --- | --- | --- | --- | --- | --- | --- | --- | --- | --- | --- | --- | --- | --- | --- |
| N=C(N)NCCC[C@@H]1NC(=O)[C@@H](NC(=O)c2ccc(NN)nc2)CSSC[C@@H](C(=O)O)NC(=O)[C@H](CC(=O)O)NC(=O)[C@@H]2CCCN2C(=O)CNC(=O)[C@H](CCCCN)NC(=O)[C@H](CC(=O)O)NC(=O)CNC1=O [^99mTc-HYNIC-iRGD, metal not drawn] | higher in mice treated with ^99mTc-HYNIC-iRGD than in those treated with ^99mTc-HYNIC-iRGE at each time point | much higher than for ^99mTc-HYNIC-iRGE and ^99mTc-HYNIC-CG7C | 1.8 | 1.9 | no obvious changes in RCPs | 12.54 | 1.43 | 14.3 ± 0.95 | 1.26 ± 0.11 | ~0.1 | no obvious changes in RCPs | increase in tumor accumulation of radioactivity | distinct tumor accumulation | high radioactivity | – |
| N=C(N)NCCC[C@@H]1NC(=O)[C@@H](NC(=O)c2ccc(NN)nc2)CSSC[C@@H](C(=O)O)NC(=O)[C@H](CC(=O)O)NC(=O)[C@@H]2CCCN2C(=O)CNC(=O)[C@H](CCCCN)NC(=O)[C@H](CCC(=O)O)NC(=O)CNC1=O [^99mTc-HYNIC-iRGE, metal not drawn] ({HYNIC}-CRGEKGPDC-OH; disulfide 1-9 (inferred); N-terminus and C-terminus assumed) | – | – | – | – | no obvious changes in RCPs | 10.56 | 0.88 | 19.3 ± 2.52 | 1.06 ± 0.08 | ~0.1 | no obvious changes in RCPs | gradually faded with time | distinct tumor accumulation | – | high radioactivity |
